# From the nanobody polyreactivity screen of Harvey et al. (2022)
# Assay: yeast display, Sf9 membrane polyspecificity reagent, FACS + sequencing; frameworks hold sequencing errors
# Summary of the method: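 In a synthetic yeast display library (Saccharomyces cerevisiae BJ5465), nanobody expression was induced with galactose for 36–48 hours. FACS gates were set low and high (top ~1%) using anti-HA fluorescence for expression and streptavidin fluorescence for binding of the Sf9 membrane reagent. Each polyreactivity label is drawn from the gate of origin.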
row,Sequence,polyreactivity (PSR sort gate)
1,QVQLVESGGGLVQAGASLRLSCAASGSIFIYYAMGWYRQAPGKERELVAAISGGGRTNYADSVKGRFTISRDNAKNTVYLQMNSLKPEDTAVYYCAADPVYWYSTMDFWGQGTQVTVSS,low polyreactivity
2,QVQLVESGGGLVQAGASLRLSCAASGSISKSYAMGWYRQAPGKERELVAAISWRGGSTYADSVKGRFTISRDNAKNTVYLQMNSLKPEDTAVYYCAAVPVHTGSLYWGFTTGYDYWGQGTQVTVSS,low polyreactivity
3,QVQLVESGGGLVQAGASLRLSCAASGSTSYPYAMGWYRQAPWKEREFVAAITRSGGSTYYADSVKGRYTISRDNAKNTVYLQMNSLKPEDTAFYYCAARRYYFTDWYRRYDYWGQGTQVTVSS,high polyreactivity
4,QVQLVESGGGLVQAGASLRLSCAATGNIFVPNAMGWYRQEPGKERELVAAIRRGGSTNYADSVKGRFTISRDNAKNTVYLQMNSMKPEDTAVYYCAKSRVSFTELEGYYWGQGTQVNVSS,low polyreactivity
5,QVQLVESGGGLVQAGASLRLSCASSGFTFGYYTMGWYRQAPGKERELVAAISWSGDSTYYADSVKGRLTISRDNAKNTVYLQMNSLKPEDTAVYYCAAEVYGSWPDYDYSGQGTQVTVSS,low polyreactivity
6,QVQLVESGGGLVQAGASLRLSSAASGFIFRDYAMGWYRQAPGKDRELVAAISRGGGTTYYEDSVKGRFTISRENAKNTVYLQMNSLTPEDTAVYYCAAKSAFPLDYWGQGTQVTVSS,high polyreactivity
7,QVQLVESGGGLVQAGASLRVSCAASGISLKYAMVWYRQAPGKERELVASISSRGTSTYYADSVKGRFTISRDNAKNTVYLQMNCLIPEDTAVYYCAARVRWWSPGGYWGQGTQVSVSS,high polyreactivity
8,QVQLVESGGGLVQAGASLRVSCAASGSTFNYNAMGWYRQAPGKERELVAAITYSGSSTYYSDSVKGRFTISRDNAKNTVYLQMNSLKPEYTAVYYCAADYWFRYGTYEYWGQGTQVSVSS,high polyreactivity
9,QVQLVESGGGLVQAGCSHRLSCSSTGRTFYIYDMGRYRQAPGKERELVAVISWSGGDTNYADSVKGRFRISRDNAKNTVYLQMNSLKPEDTAVYYCAATRRDRRKSFTYRYDYWGQGTQVTVSS,high polyreactivity
10,QVQLVESGGGLVQAGCSLRISCAASGFTFGKYAMGLYRQAPGNERELVAAITQCGGSTYYADSVKGRFTISRDNAKNTVYLQMNSLKPEYTAVYYCAADRRRQYRPGGYWGQGTQVTVSS,high polyreactivity
11,QVQLVESGGGLVQAGCSLRISCAASGSIYATKAIGWYRQAPGKERELVASISSGGCSTYYADSVKARFTISRDNAKNTVYLQLNSLKPEDTAVYYCARRIGHGSRPYWLETWRYPYDYWGQGTQVTVSS,low polyreactivity
12,QVQLVESGGGLVQAGCSLRLICAASGFIFPTNAMGWYRQAPGKERELVARISYGGGDTHYADSVKGRFTISRANAKTTVYLQMNSLKPEDTAVHYCAVKDGQDDYWGQGTQVTVSS,low polyreactivity
13,QVQLVESGGGLVQAGCSLRLICAASGSTFDPNAMGWYRQSPGKERQLVAVIDSGDGTTYYADSVKGRFTISRDNAKNTVYLQMNSLKPEDTAVYYCAVDESTSYYDDHEDYWGQGTQVTVSS,low polyreactivity
14,QVQLVESGGGLVQAGCSLRLSCAASGFIFATNTMGWYRHSPGKERELVAASSTYYAESVKGRFTISRDNAKNTVYLQMNSLKQEDTAVYYCNAYRDSYIGFVDWAGEYWGQGTQVTVSS,low polyreactivity
15,QVQLVESGGGLVQAGCSLRLSCAASGFIFVFNAMGWYRQAPGKERELVAAINGGDITNYADSVKGRFTISRDNAKNTVYLQMNSMKPEDTAVYYCNADGYYFLISNANTLGYWGQGTQVNVSS,low polyreactivity
16,QVQLVESGGGLVQAGCSLRLSCAASGFILTYYLMGWYRQAPGKERELVAAILSGGNTYYADSVKGRFTISRDNAQNTVYLQMNCLKPEDTAVYYFNARPRWSYGLDYWGQGTQVTVSS,high polyreactivity
17,QVQLVESGGGLVQAGCSLRLSCAASGFTFDQYAMGWYRQAPGKEREFVAGNSYGRGRTYYADSVKGRFTISRDNAKNNFYLQMNSVKPEVTAVYYCAADGVYRYNYPYLYTYDYWGQGTQVTVSS,low polyreactivity
18,QVQLVESGGGLVQAGCSLRLSCAASGLIFGRNVMGWYRQAPGKERELVAAISWSGGRTYYADSVKGRFTISRDNAKNTVYLQMNSLKPEDTAVYYCATDRSTRTYRSPYDYWGQGTQVTVSS,high polyreactivity
19,QVQLVESGGGLVQAGCSLRLSCAASGRIFDFYAMGWYRHAPGKERELVAAISWDGSDTYYADSVKGRFTISRDNAKNTVYLQMNSLKPEDTAVYYCAADYYSPSGHEYNYWGQGTQVTVSS,high polyreactivity
20,QVQLVESGGGLVQAGCSLRLSCAASGRIFGQYAMGWYRQAPGKEREFVAGISTTGGSTYYADSVKGRFTISRDNAKNTVYLQMNSLKPEDTAVYYFAVRINWSRWYHYYTYNYWGQGTQVTVSS,high polyreactivity
21,QVQLVESGGGLVQAGCSLRLSCAASGRIFSFYAMGWYRQAPGKERELVITSGGDTNYADSVKGRFTISRDNAKNTVYLQLNSLKPEDTAVYYCNAEGDRSQPYNFDYWGQGTQVTVSS,low polyreactivity
22,QVQLVESGGGLVQAGCSLRLSCAASGRIFSFYVMGWYRQAPGKERELVAAISLSGGSTYYADSVKGRFTISRDNAKNTVYLQMNSLKPEDTAVYYCNAVLYARLRDRWARYDYWGQGTQVTVSS,high polyreactivity

row,Sequence,polyreactivity (PSR sort gate)
1,QVQLVESGGGLVQAGCSLRLSCAASGRIFSYNAMGWYRPAPAKERELVAAISSDGSTYYADSVKGRFTISRDNAKNTVYLQMNSLKPEDTAVYYCAAYPRVNGNILSTGDYWGQGTQVTVSS,low polyreactivity
2,QVQLVESGGGLVQAGCSLRLSCAASGRIFTSYAMGWYRQAPGKERELVAAISRSGARTYYADTVKGRFTISRDNAKNTVYLQMNSLKPEDTAVYDCAAVTVAGYDYWGQGTQVTVSS,high polyreactivity
3,QVQLVESGGGLVQAGCSLRLSCAASGRIFVEYAMGWYRQAPGKVTELVAAINSGGSTNYADSVKGRFTISRDNAKNTVYLQMNSLKPEDTAVYYCNIDTLVYGYVQDYEYWGQGSQVTVSS,low polyreactivity
4,QVQLVESGGGLVQAGCSLRLSCAASGRILFGYAMGWYRQAPGKERELVADITSTGSTNYADSVKGRFTISRDNAKNTVYLQMNSLKPEDTAVYYCNARRESYYQRYRVDYWGQGTQVTVSS,low polyreactivity
5,QVQLVESGGGLVQAGCSLRLSCAASGRNFVHYAMGWYRQAPGKERDLVAAISWSGGNTYYADSVKGRFTISRDNAKNTVYLQMNSLKPEDTAVYYCARAPYYVASGHRRVLRPTYEYWGQGTQVTVSS,low polyreactivity
6,QVQLVESGGGLVQAGCSLRLSCAASGRTFARYVMGWYRQAPGKEREFVATISTSGTSTYYADSVKGRFTISRDNAKNTVYLQMNSLKPAETAVYYCAARRTTRGYDYWGQGTQVTVSS,high polyreactivity
7,QVQLVESGGGLVQAGCSLRLSCAASGRTFITNAMGWYRQAPGKVRELVAAISSGTGGRTYYADSVKGRFTISRDKAKNTVYFQMNSRKPEDTAVYYCAARSTKYYPYGYWGQGTQVTVTS,high polyreactivity
8,QVQLVESGGGLVQAGCSLRLSCAASGRTFPPYAMGWYRQAPRKERELVAAISRRAGTTYYADSVKGRFTISRDNAKNTVYLQMNSLKPEDTAVYYCAALSESSSYGYWGQGTQVTVSS,low polyreactivity
9,QVQLVESGGGLVQAGCSLRLSCAASGRTFVQYFMGWYRQAPGKERELVAAITSSGGSTYADSVKGRFTISRDNAKNTVFLHMNSLKPEDTAVYYCAADYLDGVGDVEHDYWGQGTQVTVSS,low polyreactivity
10,QVQLVESGGGLVQAGCSLRLSCAASGRTFYRYTMGWYRQAPGKERELVAAISISGGSTYYSDSVKGRFTISRDNEKNTFYLQMNSLKPEDSAVYYCAATSWGTYYRRLYYWGQATQVTVSS,high polyreactivity
11,QVQLVESGGGLVQAGCSLRLSCAASGRTFYYAMGWYRQAPGKERYADSVKGRFTISRDNAKNTVYLQMNSLKPEDTAVYYCAAKVPEPTSLDQSDYWGQGTQVTVSS,low polyreactivity
12,QVQLVESGGGLVQAGCSLRLSCAASGSIFAVYAMGWYRQATGKERELVAAISWSVGSTYYADSVKGRFTISRDHAKNTVYFQMNSLKPEDTAVYYCAAELAYYLDYVEYFTEIDLEGYWGQGTQVTVSS,low polyreactivity
13,QVQLVESGGGLVQAGCSLRLSCAASGSIFESYAMGWSRQAPGNERELVAAITSSGDSTYYADSVKGRFTITRDNAKNTVYIQMNSLKPEDTAVYYCANRVPTYISTADWGSRYDYWGQGTQVTVSS,low polyreactivity
14,QVQLVESGGGLVQAGCSLRLSCAASGSIFPFNAMGWYRQAPGKERELVAAITRSGGSTYYADSVKGRFTISRDNAKNTVYLQMNSLKPEDTAVYYCATDPEWPLPAYYYWGQGTQVTVSS,low polyreactivity
15,QVQLVESGGGLVQAGCSLRLSCAASGSIRGYAMGWSRQAPGKERELVASITWSGGSTYYADSVKGRFTMSRDNAKYTVYLQMHSLNPEDTAVYYCAASPSPYASVIRPYDYWGQGTQVTVSS,low polyreactivity
16,QVQLVESGGGLVQAGCSLRLSCAASGSTFFYYAMGWYRQSPGKERELVARISGGGSTNYADSVKGRFTISRDNAKNTVYLQMNSLKPEDTAVYYCAADRYDYYRYSYGRYGYWGQGTQVTVSS,high polyreactivity
17,QVQLVESGGGLVQAGCSLRLSCAASGSTFRYYAMGWYRQAPGKERELVAAINRSGGSTYYADSVKGRFTISRDNAKNTVYLQMYSLKPEDTAVYYCAAPWARHYSNPDDYWGQGTQVTVSS,high polyreactivity
18,QVQLVESGGGLVQAGCSLRLSCASSGSIFGRYAMGWYRQAPGKERELVAAISRGGSTNYADSVKGRFTISRDNAKNTVYLQLNSLKPEDTAVYYCNRKPYYVSSTRYDYWGQGSQVTVSS,high polyreactivity
19,QVQLVESGGGLVQAGCSLRLSCGASGSTFIHYAMGWYRQAPGTERELVAAITWDGSSTYYADSVKGRFTISLDNAKNTVYLQMNSLKPEDTAVYDCATDYAGQYPVDGQAIHDYWGQGTQVTVSS,low polyreactivity
20,QVQLVESGGGLVQAGCSLRLSSAASGIIFSHNAMGWYRQAPGKERELVDDIDWSGGSTYYADSVKGRFTISRDNAKNTVYLQMNSLKPEDTAVYYCAAEYRDYVPVNDTGDYWGQGTQVTVSS,low polyreactivity
21,QVQLVESGGGLVQAGCSLRLSWAASGRIFRPNSMGWYRQAPGKERELVAAITSNGGRTYYADSVKGRFTISRDNAKNTVYLQMNSLKPEDTAVYYCAKRVWYYSHKYDYWGQGTQVTVSS,high polyreactivity
